Assays:
[1] = molecular target: full-length VAMP2 (mouse His6-SUMO-VAMP2, residues 1-116) (mouse) (UniProt P63044)
Syntaxin1 (rat) = Syntaxin1 (rat) (UniProt P32851)
Syntaxin1 (rat), sequence (P32851 whole entry): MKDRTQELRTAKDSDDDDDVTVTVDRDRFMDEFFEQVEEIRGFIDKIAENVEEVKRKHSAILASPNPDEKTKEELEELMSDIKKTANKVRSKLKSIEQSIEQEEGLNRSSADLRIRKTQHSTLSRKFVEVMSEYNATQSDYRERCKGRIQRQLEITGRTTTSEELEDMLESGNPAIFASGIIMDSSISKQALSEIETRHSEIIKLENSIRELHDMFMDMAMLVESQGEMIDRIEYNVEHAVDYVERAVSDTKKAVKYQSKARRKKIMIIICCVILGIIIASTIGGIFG

full-length VAMP2 (mouse His6-SUMO-VAMP2, residues 1-116) (mouse), sequence (P63044 whole entry, the tested form may be a part): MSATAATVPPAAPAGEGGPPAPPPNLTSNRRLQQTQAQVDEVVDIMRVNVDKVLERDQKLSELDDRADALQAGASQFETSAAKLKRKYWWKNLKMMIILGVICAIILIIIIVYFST

| single-vesicle fusion assay with 500 nM DHG: fraction of immobile clamped vesicles that fused upon 100 µM Ca2+ (wild type ~90%) [1] [%] | single-vesicle fusion assay with 500 nM DHG: fraction of immobile clamped vesicles that fused upon 100 µM Ca2+ (wild type ~90%) (Syntaxin1 (rat)) [%] | Substance |
| --- | --- | --- |
| 20 |  | Munc13 D1358K (from UniProt Q62768 529-1407; Q62768 1453-1735) (domain or fragment) |
|  | 20 | Munc13 N1128A/F1131A (from UniProt Q62768 529-1407; Q62768 1453-1735) (domain or fragment) |

Reference: article PMC10450444
